From PMC3469515 (Molecular Biology of the Cell, 2012)

Molecular target: the molecule itself
Test: AUC

B1: Mid1p construct M1-14 (residues 1–578) (domain or fragment, S. pombe, UniProt P78953 1-578, looked up)
chain: MKEQEFSYREAKDVSLDSKGLENSFLSSPNREKTPLFFEGNSNETSGYDQTKNFTHGDGDMSLGNLSELNVATDLLESLDLRSMYMHGYGHLDSSFSSQHSPDNRKRMSSTSVFKRINSEEEGRIPSLTYSAGTMNSTSSSTASLKGADIVADYETFNPDQNLAELSFDRSKSSRKRAVEVAEFSRAKTMSPLEYTVQHPYQSHNELSTNPARARAGSVPNLARIPSDVKPVPPAHLSASSTVGPRILPSLPKDTTEDNPALERVETTASLDMDYKPLEPLAPIQEAPVEDTSEPFSSVPEATLDDSDISTESLRKKVLAKMEAKRISSGSSYASTLRKVYDFSELSLPTNGKDYDELYLQSSRNSEPEISTIINDSLQQENMDEDISATSIPKSQAAYGHGSVTYHEVPRYNLTSASVGYSISSQRGRIKSSSTIDNLSAILSSEDLRHPSMQPVPGTKRTYSNYCENEPNKSSQSLVSSESHNVEGWNYSETGTVGFYDPSAEISASIDELRQSTPVARDSELLSRAHSFDLNRLDLPSQDKSTSYEVPNGTENQSPRPVTSLGFVNETFFEEKPK
- stoichiometry N: > 8
